T1: SuhB^K108A (E. coli, UniProt P0ADG4 1-267, K108A)
T1 sequence (looked up): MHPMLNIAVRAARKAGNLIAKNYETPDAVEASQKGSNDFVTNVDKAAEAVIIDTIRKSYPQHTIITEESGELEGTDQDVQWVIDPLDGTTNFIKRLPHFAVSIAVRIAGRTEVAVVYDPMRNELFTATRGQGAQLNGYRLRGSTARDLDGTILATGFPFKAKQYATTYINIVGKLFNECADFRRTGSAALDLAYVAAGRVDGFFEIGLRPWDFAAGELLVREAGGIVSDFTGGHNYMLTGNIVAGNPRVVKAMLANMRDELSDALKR

B1: SuhB (inositol mono-phosphatase SuhB), wild type (natural protein, E. coli, UniProt P0ADG4 1-267, looked up)
chain: MHPMLNIAVRAARKAGNLIAKNYETPDAVEASQKGSNDFVTNVDKAAEAVIIDTIRKSYPQHTIITEESGELEGTDQDVQWVIDPLDGTTNFIKRLPHFAVSIAVRIKGRTEVAVVYDPMRNELFTATRGQGAQLNGYRLRGSTARDLDGTILATGFPFKAKQYATTYINIVGKLFNECADFRRTGSAALDLAYVAAGRVDGFFEIGLRPWDFAAGELLVREAGGIVSDFTGGHNYMLTGNIVAGNPRVVKAMLANMRDELSDALKR
notes: Inositol mono-phosphatase SuhB of E. coli, PCR-amplified from E. coli (DH5α) genomic DNA, full length; Dimer by SEC-MALS and in both crystal structures; also called wt SuhB; SuhB^II; source: E. coli BL21(DE3)pLysS, purified (Ni-NTA, TEV digestion, SEC)

Tests used:
Conditions in all cases: both partners purified
[1] = target: T2, NusA, full length (E. coli, UniProt P0AFF6 1-495); experiment: SEC; analytical SEC of mixtures of proteins only; Superdex 200 Increase 3.2/300; 20 μM largest component, 25 μM all smaller components; 20 mM HEPES–NaOH pH 7.5, 50 mM NaCl, 1 mM DTT; incubated at room temperature for 15 min; fractions on SDS-PAGE
T2 construct: Transcription factor NusA of E. coli, full length; also called NusA^FL; N-utilization substance A; source: recombinant, produced and purified as described previously (18,19)

[2] = target: B1; experiment: SPR; Biacore, Sensor Chip NTA, 20°C; N-terminally His6-tagged NusA^AR2 immobilised; single cycle kinetics with SuhB variants at 25, 50, 100, 150 and 200 nM; 20 mM HEPES–NaOH pH 7.5, 50 mM NaCl, 1 mM DTT
[3] = target: T1, SuhB^K108A; experiment: as above

Binder	binding result [1]	Kd [2] [nM]	Kd [3] [nM]
B1	binds	–	–
N-terminally His6-tagged NusA^AR2 (domain or fragment, E. coli, UniProt P0AFF6 427-495, looked up, C-terminal acidic repeat 2 (AR2) domain of E. coli NusA, residues 427–495; Same construct as m3, with the His6 tag kept for capture on the NTA chip in SPR; also called wt AR2; source: recombinant (pETM-11), purified via the same protocol as full-length NusA (19); not shown: His6, N-terminal, kept) DNKPADDLLNLEGVDRDLAFKLAARGVCTLEDLAEQGIDDLADIEGLTDEKAGALIMAARNICWFGDEA	–	94	435
SuhB^KL251/254AA (natural protein, E. coli, UniProt P0ADG4 1-267, looked up, also called KL/AA) MHPMLNIAVRAARKAGNLIAKNYETPDAVEASQKGSNDFVTNVDKAAEAVIIDTIRKSYPQHTIITEESGELEGTDQDVQWVIDPLDGTTNFIKRLPHFAVSIAVRIKGRTEVAVVYDPMRNELFTATRGQGAQLNGYRLRGSTARDLDGTILATGFPFKAKQYATTYINIVGKLFNECADFRRTGSAALDLAYVAAGRVDGFFEIGLRPWDFAAGELLVREAGGIVSDFTGGHNYMLTGNIVAGNPRVVAAMAANMRDELSDALKR	binds	–	–

— publication PMC6614801, “Structural basis for the function of SuhB as a transcription factor in ribosomal RNA synthesis” (Nucleic Acids Research, 2019)
